Results taken from US20260146107A1 (ALLIGATOR BIOSCIENCE, published 2026).

T1: CEACAM-8, recombinant (R&D Systems #9639-CM-050) (UniProt P31997 35-320)
T1 sequence (looked up): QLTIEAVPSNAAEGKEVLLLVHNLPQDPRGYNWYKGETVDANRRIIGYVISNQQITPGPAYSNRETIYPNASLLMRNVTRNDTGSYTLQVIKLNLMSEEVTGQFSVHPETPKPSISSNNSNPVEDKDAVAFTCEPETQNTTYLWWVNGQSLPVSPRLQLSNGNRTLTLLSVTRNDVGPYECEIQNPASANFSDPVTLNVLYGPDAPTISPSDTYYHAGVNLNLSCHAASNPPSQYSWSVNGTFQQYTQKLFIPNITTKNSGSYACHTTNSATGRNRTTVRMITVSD

T2: human CEACAM1, recombinant (R&D Systems #2244-CM-050) (human, UniProt P13688 35-428)
T2 construct: also called hCEACAM-1
T2 sequence (looked up): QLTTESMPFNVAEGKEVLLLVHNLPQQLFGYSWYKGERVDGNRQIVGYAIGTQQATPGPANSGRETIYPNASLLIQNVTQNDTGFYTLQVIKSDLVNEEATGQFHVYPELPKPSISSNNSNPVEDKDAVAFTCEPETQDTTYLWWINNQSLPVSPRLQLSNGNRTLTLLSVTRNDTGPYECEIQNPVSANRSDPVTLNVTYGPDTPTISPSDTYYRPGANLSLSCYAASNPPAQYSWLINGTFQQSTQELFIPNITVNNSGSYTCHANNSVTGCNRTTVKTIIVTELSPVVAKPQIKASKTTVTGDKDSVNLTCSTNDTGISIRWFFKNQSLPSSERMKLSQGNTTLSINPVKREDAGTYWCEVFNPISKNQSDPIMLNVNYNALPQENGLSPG

T3: human CEACAM6, recombinant (R&D Systems #3934-CM-050) (human, UniProt P40199 35-320)
T3 construct: also called hCEACAM-6
T3 sequence (looked up): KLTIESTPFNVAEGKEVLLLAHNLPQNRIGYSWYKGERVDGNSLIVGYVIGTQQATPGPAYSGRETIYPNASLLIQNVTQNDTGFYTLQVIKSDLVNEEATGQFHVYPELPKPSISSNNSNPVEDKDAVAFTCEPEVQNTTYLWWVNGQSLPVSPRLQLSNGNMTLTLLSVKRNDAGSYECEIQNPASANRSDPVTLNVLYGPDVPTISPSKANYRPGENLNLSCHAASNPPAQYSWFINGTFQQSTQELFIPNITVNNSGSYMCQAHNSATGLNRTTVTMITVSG

T4: human CEACAM5, recombinant (R&D Systems #4128-CM-050) (human, UniProt P06731 35-685)
T4 construct: Bought; coated in ELISA and used as monomeric analyte in Octet; also called hCEACAM-5; Human CEACAM5-His; not shown: His tag
T4 sequence (looked up): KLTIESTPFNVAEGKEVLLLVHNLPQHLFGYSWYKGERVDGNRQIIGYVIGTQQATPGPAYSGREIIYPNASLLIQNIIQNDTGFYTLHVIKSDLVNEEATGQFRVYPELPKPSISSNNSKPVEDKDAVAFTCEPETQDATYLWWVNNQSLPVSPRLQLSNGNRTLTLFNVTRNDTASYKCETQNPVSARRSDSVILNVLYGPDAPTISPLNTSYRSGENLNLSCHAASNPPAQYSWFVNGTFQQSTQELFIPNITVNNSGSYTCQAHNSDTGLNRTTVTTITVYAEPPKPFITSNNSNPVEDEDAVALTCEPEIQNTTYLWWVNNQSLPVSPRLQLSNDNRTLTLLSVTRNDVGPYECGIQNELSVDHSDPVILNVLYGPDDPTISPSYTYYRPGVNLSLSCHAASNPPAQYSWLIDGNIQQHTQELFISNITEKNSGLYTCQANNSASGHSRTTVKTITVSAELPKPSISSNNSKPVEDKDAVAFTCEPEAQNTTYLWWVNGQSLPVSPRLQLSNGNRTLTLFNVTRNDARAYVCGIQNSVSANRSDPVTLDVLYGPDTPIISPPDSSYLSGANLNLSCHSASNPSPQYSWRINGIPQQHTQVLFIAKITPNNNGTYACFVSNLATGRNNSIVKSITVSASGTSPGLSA

T5: human CEACAM1 expressed on CHO cells (human, UniProt P13688 35-526)
T5 construct: whole, on cells; also called CHO-CEACAM1; CEACAM1 on cells
T5 sequence (looked up): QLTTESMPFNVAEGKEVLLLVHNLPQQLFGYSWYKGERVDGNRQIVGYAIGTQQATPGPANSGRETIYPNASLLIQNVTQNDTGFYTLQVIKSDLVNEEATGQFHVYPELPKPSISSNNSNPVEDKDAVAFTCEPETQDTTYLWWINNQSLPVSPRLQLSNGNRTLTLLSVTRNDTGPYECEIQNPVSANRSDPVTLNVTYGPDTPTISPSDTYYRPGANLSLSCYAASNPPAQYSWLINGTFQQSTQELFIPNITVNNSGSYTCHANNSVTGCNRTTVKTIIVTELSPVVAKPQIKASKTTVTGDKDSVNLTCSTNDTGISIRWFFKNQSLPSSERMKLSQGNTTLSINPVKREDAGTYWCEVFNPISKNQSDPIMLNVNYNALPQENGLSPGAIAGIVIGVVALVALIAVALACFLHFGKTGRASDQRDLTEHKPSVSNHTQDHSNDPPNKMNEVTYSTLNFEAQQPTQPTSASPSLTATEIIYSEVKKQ


Legend:
[1] = target: T1, CEACAM-8, recombinant (R&D Systems …); experiment: ELISA, cross-reactivity to other CEA family members
Method: (§1) 96-well plates were coated with 0.5 μg/mL antigen, hCEACAM-5 (4128-CM-050, R&D Systems), hCEACAM-1 (2244-CM-050, R&D Systems), hCEACAM-6(3934-CM-050, R&D Systems) or CEACAM-8 (9639-CM-050, R&D Systems) in PBS over night at 4° C. After washing with PBS/0.05% Tween 20 (PBST), the plates were blocked with PBST, 2% BSA for at least 30 minutes at room temperature before a second round of washing. […] After washing, plates were incubated with 50 μl detection antibody (0.5 μg/ml HRP conjugated goat anti human-kappa light chain, #STAR127P, AbD Serotec). Finally, a final round of washing was performed and bound complexes detected using SuperSignal Pico Luminescent as substrate and luminescence signals were measured using Fluostar Optima.

[2] = target: T2, human CEACAM1, recombinant (R&D Systems …); experiment: as above
Method: as §1

[3] = target: T3, human CEACAM6, recombinant (R&D Systems …); experiment: as above
Method: as §1

[4] = target: T4, human CEACAM5, recombinant (R&D Systems …); experiment: Octet BLI, IgG1 captured on AHC tips, CEACAM5-His in solution, 1:1 fit
Method: Kinetic measurements were performed in the Octet RED96 platform using several different setups. Monoclonal antibodies (listed in Table 9), serially diluted ½ starting at 100 nM, were captured to anti human IgG Fc Capture (AHC) Biosensor tips (Sartorius #18-5060). Human CEACAM5-His (R&D Systems #4128-CM-050) diluted in 1× kinetic buffer (Sartorius) at 100 nM was then added. Binding kinetics was studied in 1× kinetic buffer where association was allowed for 300 sec followed by dissociation for 600 sec. Sensor tips were regenerated with 10 mM Glycine pH 1.7. Data generated were referenced by subtracting blank or parallel buffer blank, the baseline was aligned to the y-axis, inter-step correction by alignment against dissociation was performed and the data was smoothed by Savitzky-Golay filter in the data analysis software (v9.0.0.14). The processed data was fitted using a 1:1 Langmuir binding model with R² or X² as a measurement of fitting accuracy.

[5] = target: T5, human CEACAM1 expressed on CHO cells; experiment: flow cytometry, transfected CHO cells, IgG1
Source text: Binding of the antibodies was detected using fluorochrome-conjugated anti-human IgG and analysed using flow cytometry.

Binder	binding result [1]	binding result [2]	binding result [3]	Kd [4] [nM]	koff [4] [s⁻¹]	kon [4] [M⁻¹ s⁻¹]	binding result [5]
AC_05060 (antibody, human IgG1, kappa, V domains shown) VH: EVQLLESGGGLVQPGGSLRLSCAASGFTFGSYYMSWVRQAPGKGLEWVSGISGYGYYTGYADSVKGRFTISRDNSKNTLYLQMNSLRAEDTAVYYCARHGYGVIDYWGQGTLVTVSS VL: DIQMTQSPSSLSASVGDRVTITCRASQSIRDYLNWYQQKPGKAPKLLIYAASSLQSGVPSRFSGSGSGTDFTLTISSLQPEDFATYYCQQGTFPFTFGQGTKLEIKR	no binding (tested: 0.4 µg/ml)	no binding (tested: 0.4 µg/ml)	no binding (tested: 0.4 µg/ml)	6	0.002	400000	no binding (tested: 0.5 and 5 µg/ml)
AC_05061 (antibody, human IgG1, kappa, V domains shown) VH: not shown VL: DIQMTQSPSSLSASVGDRVTITCRASQSISSYLNWYQQKPGKAPKLLIYAASSLQSGVPSRFSGSGSGTDFTLTISSLQPEDFATYYCQQGAYVPYTFGQGTKLEIKR	no binding (tested: 0.4 µg/ml)	no binding (tested: 0.4 µg/ml)	no binding (tested: 0.4 µg/ml)	20	0.002	100000	no binding (tested: 0.5 and 5 µg/ml)
AC_05062 (antibody, human IgG1, kappa, V domains shown) VH: not shown VL: DIQMTQSPSSLSASVGDRVTITCRASQAISGYLNWYQQKPGKAPKLLIYSASSLQSGVPSRFSGSGSGTDFTLTISSLQPEDFATYYCQQSYSTPYTFGQGTKLEIKR	no binding (tested: 0.4 µg/ml)	no binding (tested: 0.4 µg/ml)	no binding (tested: 0.4 µg/ml)	0.9	0.002	2e+06	no binding (tested: 0.5 and 5 µg/ml)
AC_05064 (antibody, human IgG1, kappa, V domains shown) VH: not shown VL: DIQMTQSPSSLSASVGDRVTITCRASQSISSYLNWYQQKPGKAPKLLIYAASSLQSGVPSRFSGSGSGTDFTLTISSLQPEDFATYYCQQYPWYFPYTFGQGTKLEIKR	no binding (tested: 0.4 µg/ml)	no binding (tested: 0.4 µg/ml)	no binding (tested: 0.4 µg/ml)	0.4	6e-05	100000	no binding (tested: 0.5 and 5 µg/ml)
